Laboratory results taken from patent US20220306695A1, “COMPSTATIN ANALOGUES AND THEIR MEDICAL USES” (priority 2019, published 2022).
Positions of bridges follow the written chain, without caps; N, C: chain ends. Non-standard residues stand in square brackets, D forms with d. Trp(1-Me) = Cn1cc(C[C@H](N)C(=O)O)c2ccccc21; NMeI = CC[C@H](C)[C@H](NC)C(=O)O; Sar = CNCC(=O)O

B1: Compound 34 (peptide)
peptide: Ac-EICIWQDWGEHRCTEGE-NH2
modifications: disulfide 3-13
SMILES: CC[C@H](C)[C@@H]1NC(=O)[C@@H](NC(=O)[C@@H](NC(=O)[C@H](CCC(=O)O)NC(C)=O)[C@@H](C)CC)CSSC[C@@H](C(=O)N[C@H](C(=O)N[C@@H](CCC(=O)O)C(=O)NCC(=O)N[C@@H](CCC(=O)O)C(N)=O)[C@@H](C)O)NC(=O)[C@H](CCCNC(=N)N)NC(=O)[C@H](Cc2c[nH]cn2)NC(=O)[C@H](CCC(=O)O)NC(=O)CNC(=O)[C@H](Cc2c[nH]c3ccccc23)NC(=O)[C@H](CC(=O)O)NC(=O)[C@H](CCC(N)=O)NC(=O)[C@H](Cc2c[nH]c3ccccc23)NC1=O
B2: Compound 55 (peptide)
peptide: Ac-EGSAICIWQDWGEHRCTE-NH2
modifications: disulfide 6-16
SMILES: CC[C@H](C)[C@H](NC(=O)[C@H](C)NC(=O)[C@H](CO)NC(=O)CNC(=O)[C@H](CCC(=O)O)NC(C)=O)C(=O)N[C@H]1CSSC[C@@H](C(=O)N[C@H](C(=O)N[C@@H](CCC(=O)O)C(N)=O)[C@@H](C)O)NC(=O)[C@H](CCCNC(=N)N)NC(=O)[C@H](Cc2c[nH]cn2)NC(=O)[C@H](CCC(=O)O)NC(=O)CNC(=O)[C@H](Cc2c[nH]c3ccccc23)NC(=O)[C@H](CC(=O)O)NC(=O)[C@H](CCC(N)=O)NC(=O)[C@H](Cc2c[nH]c3ccccc23)NC(=O)[C@H]([C@@H](C)CC)NC1=O
B3: Compound 62 (peptide)
peptide: Ac-YCI[Trp(1-Me)]QDWGEHRCTGAES-NH2
modifications: disulfide 2-12
SMILES: CC[C@H](C)[C@@H]1NC(=O)[C@@H](NC(=O)[C@H](Cc2ccc(O)cc2)NC(C)=O)CSSC[C@@H](C(=O)N[C@H](C(=O)NCC(=O)N[C@@H](C)C(=O)N[C@@H](CCC(=O)O)C(=O)N[C@@H](CO)C(N)=O)[C@@H](C)O)NC(=O)[C@H](CCCNC(=N)N)NC(=O)[C@H](Cc2c[nH]cn2)NC(=O)[C@H](CCC(=O)O)NC(=O)CNC(=O)[C@H](Cc2c[nH]c3ccccc23)NC(=O)[C@H](CC(=O)O)NC(=O)[C@H](CCC(N)=O)NC(=O)[C@H](Cc2cn(C)c3ccccc23)NC1=O
B4: Compound 47 (peptide)
peptide: Ac-ICIWQDWGAHRCTGAES-NH2
modifications: disulfide 2-12
SMILES: CC[C@H](C)[C@H](NC(C)=O)C(=O)N[C@H]1CSSC[C@@H](C(=O)N[C@H](C(=O)NCC(=O)N[C@@H](C)C(=O)N[C@@H](CCC(=O)O)C(=O)N[C@@H](CO)C(N)=O)[C@@H](C)O)NC(=O)[C@H](CCCNC(=N)N)NC(=O)[C@H](Cc2c[nH]cn2)NC(=O)[C@H](C)NC(=O)CNC(=O)[C@H](Cc2c[nH]c3ccccc23)NC(=O)[C@H](CC(=O)O)NC(=O)[C@H](CCC(N)=O)NC(=O)[C@H](Cc2c[nH]c3ccccc23)NC(=O)[C@H]([C@@H](C)CC)NC1=O
B5: Compound 46 (peptide)
peptide: Ac-ESSAICIWQDWGAHRCT-NH2
modifications: disulfide 6-16
SMILES: CC[C@H](C)[C@H](NC(=O)[C@H](C)NC(=O)[C@H](CO)NC(=O)[C@H](CO)NC(=O)[C@H](CCC(=O)O)NC(C)=O)C(=O)N[C@H]1CSSC[C@@H](C(=O)N[C@H](C(N)=O)[C@@H](C)O)NC(=O)[C@H](CCCNC(=N)N)NC(=O)[C@H](Cc2c[nH]cn2)NC(=O)[C@H](C)NC(=O)CNC(=O)[C@H](Cc2c[nH]c3ccccc23)NC(=O)[C@H](CC(=O)O)NC(=O)[C@H](CCC(N)=O)NC(=O)[C@H](Cc2c[nH]c3ccccc23)NC(=O)[C@H]([C@@H](C)CC)NC1=O
B6: Compound 36 (peptide)
peptide: Ac-ESEICIWQDWGEHRCEGE-NH2
modifications: disulfide 5-15
SMILES: CC[C@H](C)[C@@H]1NC(=O)[C@@H](NC(=O)[C@@H](NC(=O)[C@H](CCC(=O)O)NC(=O)[C@H](CO)NC(=O)[C@H](CCC(=O)O)NC(C)=O)[C@@H](C)CC)CSSC[C@@H](C(=O)N[C@@H](CCC(=O)O)C(=O)NCC(=O)N[C@@H](CCC(=O)O)C(N)=O)NC(=O)[C@H](CCCNC(=N)N)NC(=O)[C@H](Cc2c[nH]cn2)NC(=O)[C@H](CCC(=O)O)NC(=O)CNC(=O)[C@H](Cc2c[nH]c3ccccc23)NC(=O)[C@H](CC(=O)O)NC(=O)[C@H](CCC(N)=O)NC(=O)[C@H](Cc2c[nH]c3ccccc23)NC1=O
B7: Compound 48 (peptide)
peptide: H-[dY]ICI[Trp(1-Me)]QDW[Sar]AHRC[NMeI]-NH2
modifications: disulfide 3-13
SMILES: CC[C@H](C)[C@H](NC(=O)[C@H](N)Cc1ccc(O)cc1)C(=O)N[C@H]1CSSC[C@@H](C(=O)N(C)[C@H](C(N)=O)[C@@H](C)CC)NC(=O)[C@H](CCCNC(=N)N)NC(=O)[C@H](Cc2c[nH]cn2)NC(=O)[C@H](C)NC(=O)CN(C)C(=O)[C@H](Cc2c[nH]c3ccccc23)NC(=O)[C@H](CC(=O)O)NC(=O)[C@H](CCC(N)=O)NC(=O)[C@H](Cc2cn(C)c3ccccc23)NC(=O)[C@H]([C@@H](C)CC)NC1=O
B8: Compound 35 (peptide)
peptide: Ac-EGEICIWQDWGEHRCEGE-NH2
modifications: disulfide 5-15
SMILES: CC[C@H](C)[C@@H]1NC(=O)[C@@H](NC(=O)[C@@H](NC(=O)[C@H](CCC(=O)O)NC(=O)CNC(=O)[C@H](CCC(=O)O)NC(C)=O)[C@@H](C)CC)CSSC[C@@H](C(=O)N[C@@H](CCC(=O)O)C(=O)NCC(=O)N[C@@H](CCC(=O)O)C(N)=O)NC(=O)[C@H](CCCNC(=N)N)NC(=O)[C@H](Cc2c[nH]cn2)NC(=O)[C@H](CCC(=O)O)NC(=O)CNC(=O)[C@H](Cc2c[nH]c3ccccc23)NC(=O)[C@H](CC(=O)O)NC(=O)[C@H](CCC(N)=O)NC(=O)[C@H](Cc2c[nH]c3ccccc23)NC1=O
B9: Compound 37 (peptide)
peptide: Ac-KEKICIWQDWGEHRCTEKE-NH2
modifications: disulfide 5-15
SMILES: CC[C@H](C)[C@@H]1NC(=O)[C@@H](NC(=O)[C@@H](NC(=O)[C@H](CCCCN)NC(=O)[C@H](CCC(=O)O)NC(=O)[C@H](CCCCN)NC(C)=O)[C@@H](C)CC)CSSC[C@@H](C(=O)N[C@H](C(=O)N[C@@H](CCC(=O)O)C(=O)N[C@@H](CCCCN)C(=O)N[C@@H](CCC(=O)O)C(N)=O)[C@@H](C)O)NC(=O)[C@H](CCCNC(=N)N)NC(=O)[C@H](Cc2c[nH]cn2)NC(=O)[C@H](CCC(=O)O)NC(=O)CNC(=O)[C@H](Cc2c[nH]c3ccccc23)NC(=O)[C@H](CC(=O)O)NC(=O)[C@H](CCC(N)=O)NC(=O)[C@H](Cc2c[nH]c3ccccc23)NC1=O
B10: Compound 66 (peptide)
peptide: Ac-YCIWQDWGEHRCTGAES-NH2
modifications: disulfide 2-12
SMILES: CC[C@H](C)[C@@H]1NC(=O)[C@@H](NC(=O)[C@H](Cc2ccc(O)cc2)NC(C)=O)CSSC[C@@H](C(=O)N[C@H](C(=O)NCC(=O)N[C@@H](C)C(=O)N[C@@H](CCC(=O)O)C(=O)N[C@@H](CO)C(N)=O)[C@@H](C)O)NC(=O)[C@H](CCCNC(=N)N)NC(=O)[C@H](Cc2c[nH]cn2)NC(=O)[C@H](CCC(=O)O)NC(=O)CNC(=O)[C@H](Cc2c[nH]c3ccccc23)NC(=O)[C@H](CC(=O)O)NC(=O)[C@H](CCC(N)=O)NC(=O)[C@H](Cc2c[nH]c3ccccc23)NC1=O
B11: Compound 42 (peptide)
peptide: Ac-SAICIWQDWGEHRCTEG-NH2
modifications: disulfide 4-14
SMILES: CC[C@H](C)[C@H](NC(=O)[C@H](C)NC(=O)[C@H](CO)NC(C)=O)C(=O)N[C@H]1CSSC[C@@H](C(=O)N[C@H](C(=O)N[C@@H](CCC(=O)O)C(=O)NCC(N)=O)[C@@H](C)O)NC(=O)[C@H](CCCNC(=N)N)NC(=O)[C@H](Cc2c[nH]cn2)NC(=O)[C@H](CCC(=O)O)NC(=O)CNC(=O)[C@H](Cc2c[nH]c3ccccc23)NC(=O)[C@H](CC(=O)O)NC(=O)[C@H](CCC(N)=O)NC(=O)[C@H](Cc2c[nH]c3ccccc23)NC(=O)[C@H]([C@@H](C)CC)NC1=O
B12: Compound 39 (peptide)
peptide: Ac-ICIWQDWGEHRCTEGK-NH2
modifications: disulfide 2-12
SMILES: CC[C@H](C)[C@H](NC(C)=O)C(=O)N[C@H]1CSSC[C@@H](C(=O)N[C@H](C(=O)N[C@@H](CCC(=O)O)C(=O)NCC(=O)N[C@@H](CCCCN)C(N)=O)[C@@H](C)O)NC(=O)[C@H](CCCNC(=N)N)NC(=O)[C@H](Cc2c[nH]cn2)NC(=O)[C@H](CCC(=O)O)NC(=O)CNC(=O)[C@H](Cc2c[nH]c3ccccc23)NC(=O)[C@H](CC(=O)O)NC(=O)[C@H](CCC(N)=O)NC(=O)[C@H](Cc2c[nH]c3ccccc23)NC(=O)[C@H]([C@@H](C)CC)NC1=O
B13: Compound 51 (peptide)
peptide: Ac-ICI[Trp(1-Me)]QDWGEHRCTGAES-NH2
modifications: disulfide 2-12
SMILES: CC[C@H](C)[C@H](NC(C)=O)C(=O)N[C@H]1CSSC[C@@H](C(=O)N[C@H](C(=O)NCC(=O)N[C@@H](C)C(=O)N[C@@H](CCC(=O)O)C(=O)N[C@@H](CO)C(N)=O)[C@@H](C)O)NC(=O)[C@H](CCCNC(=N)N)NC(=O)[C@H](Cc2c[nH]cn2)NC(=O)[C@H](CCC(=O)O)NC(=O)CNC(=O)[C@H](Cc2c[nH]c3ccccc23)NC(=O)[C@H](CC(=O)O)NC(=O)[C@H](CCC(N)=O)NC(=O)[C@H](Cc2cn(C)c3ccccc23)NC(=O)[C@H]([C@@H](C)CC)NC1=O
B14: Compound 38 (peptide)
peptide: Ac-EKGICIWQDWGEHRCTEKP-NH2
modifications: disulfide 5-15
SMILES: CC[C@H](C)[C@H](NC(=O)CNC(=O)[C@H](CCCCN)NC(=O)[C@H](CCC(=O)O)NC(C)=O)C(=O)N[C@H]1CSSC[C@@H](C(=O)N[C@H](C(=O)N[C@@H](CCC(=O)O)C(=O)N[C@@H](CCCCN)C(=O)N2CCC[C@H]2C(N)=O)[C@@H](C)O)NC(=O)[C@H](CCCNC(=N)N)NC(=O)[C@H](Cc2c[nH]cn2)NC(=O)[C@H](CCC(=O)O)NC(=O)CNC(=O)[C@H](Cc2c[nH]c3ccccc23)NC(=O)[C@H](CC(=O)O)NC(=O)[C@H](CCC(N)=O)NC(=O)[C@H](Cc2c[nH]c3ccccc23)NC(=O)[C@H]([C@@H](C)CC)NC1=O

Target: Human C3 (human, UniProt P01024 23-1663)
Assay: cell-based or functional assay

Sequence of Human C3 (P01024 23-1663 limits assumed): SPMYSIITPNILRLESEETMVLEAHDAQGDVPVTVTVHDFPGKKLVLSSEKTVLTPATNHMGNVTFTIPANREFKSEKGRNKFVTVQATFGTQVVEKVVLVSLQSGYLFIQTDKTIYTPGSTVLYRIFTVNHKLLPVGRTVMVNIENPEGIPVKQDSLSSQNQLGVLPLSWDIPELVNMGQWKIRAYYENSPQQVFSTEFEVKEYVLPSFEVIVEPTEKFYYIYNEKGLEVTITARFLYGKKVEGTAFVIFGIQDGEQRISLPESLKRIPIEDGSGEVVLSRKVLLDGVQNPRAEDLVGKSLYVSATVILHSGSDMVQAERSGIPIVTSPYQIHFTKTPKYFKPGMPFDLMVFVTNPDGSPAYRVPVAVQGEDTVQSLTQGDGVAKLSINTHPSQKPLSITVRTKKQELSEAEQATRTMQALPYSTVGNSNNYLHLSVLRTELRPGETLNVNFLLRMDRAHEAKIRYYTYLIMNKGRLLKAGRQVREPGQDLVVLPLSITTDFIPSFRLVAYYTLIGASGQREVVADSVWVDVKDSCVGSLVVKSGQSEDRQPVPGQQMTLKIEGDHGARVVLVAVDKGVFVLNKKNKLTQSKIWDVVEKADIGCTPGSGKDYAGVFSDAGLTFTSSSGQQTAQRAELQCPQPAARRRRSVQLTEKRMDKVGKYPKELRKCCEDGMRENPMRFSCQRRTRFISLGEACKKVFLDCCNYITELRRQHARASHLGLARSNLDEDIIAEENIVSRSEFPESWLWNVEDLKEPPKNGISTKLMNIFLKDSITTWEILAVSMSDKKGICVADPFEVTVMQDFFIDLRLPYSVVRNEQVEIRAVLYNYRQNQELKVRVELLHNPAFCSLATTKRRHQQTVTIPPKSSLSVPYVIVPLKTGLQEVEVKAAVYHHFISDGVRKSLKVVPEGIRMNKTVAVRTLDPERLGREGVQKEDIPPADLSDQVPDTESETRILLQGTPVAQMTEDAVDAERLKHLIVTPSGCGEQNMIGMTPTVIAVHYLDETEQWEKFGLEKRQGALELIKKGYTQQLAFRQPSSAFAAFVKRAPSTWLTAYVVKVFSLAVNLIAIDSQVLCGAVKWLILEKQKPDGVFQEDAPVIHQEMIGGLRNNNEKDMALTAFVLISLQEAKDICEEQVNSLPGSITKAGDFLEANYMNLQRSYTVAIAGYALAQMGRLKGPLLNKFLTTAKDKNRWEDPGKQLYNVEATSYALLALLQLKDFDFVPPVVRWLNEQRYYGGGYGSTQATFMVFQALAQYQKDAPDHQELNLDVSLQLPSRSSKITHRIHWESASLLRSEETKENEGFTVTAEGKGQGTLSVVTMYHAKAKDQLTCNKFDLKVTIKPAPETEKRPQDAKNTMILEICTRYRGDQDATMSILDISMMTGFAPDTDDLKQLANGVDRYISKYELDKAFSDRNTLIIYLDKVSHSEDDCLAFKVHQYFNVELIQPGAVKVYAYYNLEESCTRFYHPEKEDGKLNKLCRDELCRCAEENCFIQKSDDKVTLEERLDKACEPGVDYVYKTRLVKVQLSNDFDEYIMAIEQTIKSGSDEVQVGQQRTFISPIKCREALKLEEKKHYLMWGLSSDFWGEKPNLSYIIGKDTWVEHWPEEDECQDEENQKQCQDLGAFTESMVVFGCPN

Binder	IC50[nM], inhibition of hemolysis [nM]
B1	< 250
B2	< 250
B3	< 100
B4	< 100
B5	< 100
B6	< 250
B7	< 100
B8	< 500
B9	< 250
B10	< 100
B11	< 250
B12	< 100
B13	< 100
B14	< 250
